Assay results as given in the DeepSol protein solubility set.

Experiment: soluble on expression in E. coli; label from the status in PepcDB or PDB records

| Sequence | soluble on expression in E. coli |
| --- | --- |
| MLFNSFQAKIDPSLADLFRNSDKEPFPAMTHELPPEKSLKARLLEQEDERISNVLAHEKRFSTEPVVIDDVFMSRLCVDSQPGCSRIPDIDIANVFRDDLESCTLSSSEDEEEEEEPIGQISTFEMLHAPRKPIVWSEQELSDFDMKSRLLDMRMDHWDLARIANVPKRIAKGETVNLRMPRYSAEVVKQRIAKGVTDIFGHFSLVPHTLTKSHKPVAERKQILIERYHDLMNDFDYATRPGSVESKKYANLTKRLNLCNDFLSAPKLPHRLFPRLIIRSIRPPETPKEPVKRKMRESESDDSVIIIPRKIEKEKPRPTTENVVLKKVEMEKKRPRSPELVPKKIVMEKERPSSPDSEAEEREHNLRIEKERHQKELEFRREALRKREQEREEHKKRAQEELRRQMTAALEESTRRQAEMNRQIEDEARKRDELQRIAEEKKRKQLLEDQCRAKQEKEKRDAEELEQMRLNIARLAGTKDVENALKSPSLVEIVPPSDARAFEMIKWNAVKCKIPENWEKRKDKFYRVFEWPSDAAQRDIERDEVVSIPRSKPIVIPQEDTYITRNRIPLKLPPKVKQAVPALVVRNSNNATRTVVAATVNENGIQWPAETINIDEVVREIRGLMAPTRRNFAISLSPKTDEIDYQAINLNRLKSGIVYPFYFSDGLYWPLVFLKSSKNGKPEAQRHVEALTSCKSFSGKYASRYLLTTTKEEDSATKKFEDAYADSDGDWADYSTKPGRFSNRAGFKPHYDTSNDSFEVQKQRAVDSLNSQYEKERNELDAFGRYTDEYRKRKDRAQYQNHIKTHLRELVRDARLDAFSFKEEFKDFEGGFEDYPGTRVEPYENDWYSHGYTLYSHTRDAAYADYMHDVCKPYEDMLPPTEYHEIFNEWCFTPMLASLHYQLKKNAFDVLSPQDVKDMEARHRKYIGLVQKERKFSLEQALDVCKLTDYDKRQWTILHDQLVTHFKDFPSISGLVYDRNTNLLANVNRNLKHLFSTIYRDDSPPDDQF | soluble |
| MLGDVERFFSKKALEMRASEVRELLKLVETSDIISLAGGLPNPKTFPKEIIRDILVEIMEKYADKALQYGTTKGFTPLRETLMKWLGKRYGISQDNDIMITSGSQQALDLIGRVFLNPGDIVVVEAPTYLAALQAFNFYEPQYIQIPLDDEGMKVEILEEKLKELKSQGKKVKVVYTVPTFQNPAGVTMNEDRRKYLLELASEYDFIVVEDDPYGELRYSGNPEKKIKALDNEGRVIYLGTFSKILAPGFRIGWMVGDPGIIRKMEIAKQSTDLCTNVFGQVVAWRYVDGGYLEKHIPEIRKFYKPRRDAMLEALEEFMPEGVKWTKPEGGMFIWVTLPDGIDSKKMLERAIKKGVAYVPGEAFYAHRDVKNTMRLNFTYVDEDKIMEGIKRLAETIKEELKA | soluble |
| MLGLPPELGLRTYSARLLGSNPKLVLHGGGNTSVKLNINDLFGNPVQVMCIKGSGQDLATITASGHPAVRLAPLQQLKVLDHLSDEDMVNILRTNLLDCRAPTPSVEALLHAFVDRPVIDHTHAVAAMVIADQPDGDRLCRYIYGERVLWIPYVMSGFALSLAVERAFRAYPDAEGMLLGKHGLCTFGESAKASYERMITFVTLAENFIESRRAIYSPLEHHHHHH | not soluble |
| MLGRALRPGWLGITRTVVKKPSCGSYFNRTFQTAINTTMPPMQEGMLSTMMMMTATATRITGTVSEPLNGSNIVMQLDSVMRKRKKKMKKHKLRKRRKREKAERRKLSQGR | soluble |
| MLGRTDISTFPRLKLGFWGEVTLTFPAVCDAAEIVLPANWADMSVAANNDNAAINTNNVNFLHISSYIRILVTTIPLRCGKTRDNPH | not soluble |
| MLHKEKPDYNRNQYGFYTLDQLVPDEHFLRQVEAVIDFDFIYDLVEDTYSSDNGRPSLDPVMLVKIPLIQCFYGIRSMRQTIKDIEVNTAYRWFLGLTLDDKVPHFTTYGKNYSRRFQEKGLIESIFTHIVGLCINTGLIDPTEIFIDGTHIKAAANNRKFINREVEKQAKFMSEQLEIEINRDREKHGKKPLGPAKELEPVAKKISTTDPESGWFHKGDHKEVFAYSAQVACDKYGWALAYSVEAGNIHDSQAFPALFAKLEPLKPQFIIADSGYNVPSIAKFLIDKEITPVLPYTRPRGKKDLLRPKELIYDEHFDCVICPEHQALTYRTTTREGYREYKSDPVICANCPLLSVCTTSKNYQKVVTRHIWKDYLAQPRNTTISAIRERKASPKWKIRLD | not soluble |
| MLHLIVADSELETIPEEMLDDPGVRRFAKKRNKRVDRMILDSNYMHAFIDKYYPGESKRRGRPDIIYILLEMAQESILNRKNLLRTYIHTRNDFVIKISPITRMPKSYNRFIGLFEDLFEKEIITNNGKTLLSLERMKLDELLESLKKDRTILLHPKGEFKKPSEFISTEDIAAIIGGFSEGDFRSDVSNIPEKYSIFRDELTIWSVGLEIVASYERAIGLLLEHHHHHH | not soluble |
| MLHLIVLLVALSSAVTAGRPRRALDGLDGSGFGFDKRALNSLDGAGFGFEKRALNSLDGQGFGFEKRALDGLDGAGFGFDKRALNSLDGAGFGFEKRALDGLDGSGFGFDKRALNSLDGAGFGFEKRALNSLDGAGFGFEKRALDGLDGAGFGFDKRALNSLDGAGFGFEKRALDGLDGAGFGFDKRALNSLDGNGFGFDKRTFKHSSNKLRSVFRNLKGFKQH | not soluble |
| MLITEIFHSIQGEGPYAGLPMLFVRTNVCNIRCEWCDTKYSFYGGKEIPLSELLGIVKEAKEGWVCFTGGEPLVQRDALAFVKSVVDMGKNVLIETNGTISIRNFVFSDRIFIDMDVKPPSAKVTKGFLMDNLRYLRKQDYLKIVIKDDTDLDFAIDFVDRYGEGLSFVFQPAWGSDIRRIADRIVGTGYNVRVLPQIHKIIYGDVPGV | not soluble |
| MLIYISLIMKMERLSMVILELYQNDYSKDLVAFDSIEDGKAFVAQIPGYTLETEDGFEVEYFNPKNIPDYMEIIFNGNIVPLSKFMFDPEENVNIIWKEISNLSLKNDRVIEGYSKIDAYVVNNHEVKAYVETRETNYRKAKDFLESRGYEIDRSFFGSEDGEAILYRKKGIEVWHFLCHLDPMFVEIEDVEGYVKEEVGEIQ | not soluble |
| MLKGGEDVVQGTHVRELTPEWVARAVGGRLHPGGGPVRDLVWHSGAATPGSLFAVLPGRTTHGRHFIPEALARGASLVLADQAGPATLEVEDPWQALLRLGEALRRLFPGPVLAVGGSSGKTTTKEALAQGLGLPAPPGNLNTAPPLVRFFWHLDPQSPGAVVELGVDRQGEMAELFALAKPHLAVLTALGEEHLEAFGTLEKAVQEEAHLLRAPTALVGEQAAPLVLGLREDLLVYGFAEGTFRGRDLELGLRESRFRYGGLHVRVPYPGLGPAYGALAALAAAEVLGLSLEEVAERLARLTLPPGRMETREVGGVVFVNDAYNANPLSVKAGLRWLAAQPGRKWAVLGEMRELGRESLRLHLEVAEEAARLGLSPLYLGPHARHQAAFSGEAVESLEEALAWLKARVAPGDLVYLKASRAVGLERIVELWDAPFSS | soluble |
| MLKKNDIVEVEIVDLTHEGAGVAKVDGLVFFVENALPSEKILMRVLKVNKKIGFGKVEKYLVQSPHRNQDLDLAYLRSGIADLGHLSYPEQLKFKTKQVKDSLYKIAGIADVEVAETLGMEHPVKYRNKAQVPVRRVNGVLETGFFRKNSHNLMPLEDFFIQDPVIDQVVVALRDLLRRFDLKPYDEKEQSGLIRNLVVRRGHYSGQIMVVLVTTRPKVFRVDQLIEQVIKQFPEIVSVMQNINDQNTNAIFGKEWRTLYGQDYITDQMLGNDFQIAGPAFYQVNTEMAEKLYQTAIDFAELKKDDVIIDAYSGIGTIGLSVAKHVKEVYGVELIPEAVENSQKNASLNKITNAHYVCDTAENAMKKWLKEGIQPTVILVDPPRKGLTESFIKASAQTGADRIAYISCNVATMARDIKLYQELGYELKKVQPVDLFPQTHHVETVALLSKLDVDKHISVEIELDEMDLTSAESKATYAQIKEYVWNKFELKVSTLYIAQIKKKCGIELREHYNKSKKDKQIIPQCTPEKEEAIMDALRHFKMI | not soluble |
| MLKLASSLRTGLISRSIRTLAPTVNPAEQQQVQAVLPDKLYSSVEIEYRGHDKAVLKSYTSFLQQVCQHLEIPQGRLEVLPYIRWVQPALRSKFVHKKYKLHYETRTHISKLEILNVTGSTASTFLEYIQRNIPEGVGMRVGFTELQPLPLTIQKN | not soluble |
| MLKMIAFDFDGTLAPTIPMVIDVFRRSVAPYVEHELTKQAIVQTFGLNEVGMVKAVAGQRWPVALAAFYQEYARAHLRVSAPYPGIVTLLELLQQQGVALALITGKAAKSCQISLDVTGLTSYFPTRLYGSECQPNKADNLRQLMRTKSLDAAELFYVGDTRSDFEAADTAGVQCLTAAWDPNQPIVEAGDQIVFTSVEQLWAYLQRRLGHGLVRPMSHKPR | not soluble |
| MLKQSGKLRADATPAEVEQAVRDYLRQKAIHMPRGKGELYDKEAKRAEAMQDGQQTNGVLNGKGKKLGQSKTASVPSVKPEPWNGGKRVDRVLVLLIEYPDFPHNNIQPTETDMYYKDYTREHYEDMIFGGDDGYYDGPNGEKLISVKKYYEEQSGGSYSIEGKVAGWYQAKYPAKYYGGNVPAPDGNDANPRALVREALAAAAKDPSINLREFDQEDRYDLDGDGNYREPDGLIDHLMIIHSSVGEEAGGGSLGGAAIWSHRWNLGSVYRIPNTTTDVPYWRGQLAAYDYTIEPADGAAGVFAHEYGHDLGLPDEYDTIYSGLGEPIAYWSIMSSGSWAGRIPGTEPTGFSAWAKQFLQSTMPGSNWLSGTTVEWNEVTQNGVEVVLDEASTKGTNNDAVRINLLKKETVVTIPPSGAYAYFSGSGNNLDHTMSTTIDLTGASKATLAFDTWYAIEKDWDYGAVEVKPHGSNEWTTIQGNITTTNNPYGQNPGNGITGTSNGWVKAEFDLSAYAGQTIDLRFHYITDVAVSEAGWYFDNIQVTADGAAVLADGAEGDSSFVMTGFEKSNGKRYSDHYYLLEWRNHRGVDEGLAHILRGGRLLSYDPGLVVWYVDEGYDNNWTGVHPGEGFLGVVDADQHTLKWSGNTTASTRYQVHDAAFSLQKGASFRVAINGSQLIDNDTSPTPVFDDSRSYDNKGAVDAGRNVPNYGLKIRVIGESADRTAARVLIYR | not soluble |
| MLKSKKRLLNPDYLFVTQDESSFYLDSNRSKCWAIKGSKPIKFISGSKTKINIGGFYTENRDFYWYDLGIKKNTDSFLKSLIKLKKDIGRKIFLLLDRATWHKSKKAREFFQNNKYWLQILLFPPATPDRNPTEYCWKTTREELTSIKSFKNIKVLKEELDEFWEKHVFTHKMSHYLKWLEHHHHHH | not soluble |
| MLKVDGIDVFYGNIHALKGVSLEVNKGEIVTLIGANGAGKTTLLKTISGLLRPKNGDIVYEGASIAGKAAQTIVKQGISHVPEGRRVFANMTVEENLELGAFLRKDKEGIQQDFAKVFQLFPRLEERRKQLAGTLSGGEQQMLAIGRALMARPKLLLLDEPSMGLAPLLVKTIFRIIQEINESGTTILLVEQNAHMALSIAHRAYVLESGRVVLSGTASELQASEQVKQAYLGGH | soluble |
| MLLFLTIILILVGGCTPKTKEVVLKNRNYVVIKEGKPALSEEDIIKLSRSLYVNKVNRPEVLRALKSLLTKRESLKYAFYRMKLYENIIVPILRSYGLPEEFKYLPIVESMYNPFAVSRSGAAGIWQLMPQTARRYGLIVRKDYDERFDVVKSTHAAAKYLRDLLEEFKNLELVLAAYNCGENCIRRNVNYNFWKERRKLPKETQNYVPLFLATLLIAQNPEYYGIHLYEPSREIAIVKVGIPMSVEDFLIMYSMNESRFRDLNPHIRGRKIPKNANVYVEERKLVKGEYLLRARGREE | not soluble |
